The source of these data is the RNAGym collection of RNA variant scans (doi:10.7554/elife.90254).

The labels stand for the following.
B1: OR4K15 (parent)
chain: GUUAACGGUCAUAGGCCAUGGAAACUAGGAGCACCAUUUCGCUGCCAGUGAAGAAAUGAACAAAGAAAAUCUGGGCCAGGCAGGCAUCAAAAGAAAUAGUCUUGCGCUCAACCAGAAAGUCUGUAAUCAUUUUAAGGGUA

In this series the parent is B1. Kind of series: self-cleavage, relative activity (ratio to wild type); higher = more cleavage; in vitro, sequencing; the parent is a self-cleaving ribozyme.
Consider GUUAACGGUCAUAGGCCAUGGAAUCUAGGAGCACCAUUUCGCUGCCAGCGAAGAAAUGAACAAAGAAAAUCUGGGCCAGGCAGGCAUCAAAAGAAAUAGUCUUGCGCUCAACCAGAAAGUCUGUAAUCAUUUUAAGGGUA [A24U U49C], for which the self-cleavage came to 0.58. In the case of GUUAACGGUCAUAGGCCAUGGAAACUAGGAGCACCAUUUCGCUGCCAGUGAAGAAAUGAACAAAGAAAAUCUGGACCAGGCAGGCAUCAAAAGAAAUAGCCUUGCGCUCAACCAGAAAGUCUGUAAUCAUUUUAAGGGUA [G75A U100C], the self-cleavage turned out to be 0.12. With GUUAACGGUCAUAGGCCAUGGAAACUAGGAGCACCAUUUCGCUGCCAGUGAAGAAAUGAACAAAGAAAAUCCGGGCCAGGCAGGCAUCAAAAGAAAUAGUCUCGCGCUCAACCAGAAAGUCUGUAAUCAUUUUAAGGGUA [U72C U103C], the self-cleavage was found to be 0.09.

GUUAACGGUCAUAGGCCAUGGAAACUAGGAGCACCAUCUCGCUGCCAGUGAAGAAAUGAAUAAAGAAAAUCUGGGCCAGGCAGGCAUCAAAAGAAAUAGUCUUGCGCUCAACCAGAAAGUCUGUAAUCAUUUUAAGGGUA [U38C C61U]: the self-cleavage was 1.86. For GUUGACGGUCAUAGGCCAUGGAAACUAGGAGCACCAUUUCGCUGCCAGUGAAGAAAUGAACAAAGAAAAUCUGGGCCAGGCAGGCAUCAAAAGAAAUAGUCUUGCGCUCAACCAGAGAGUCUGUAAUCAUUUUAAGGGUA [A4G A117G] the value was 1.18; for GGUAACGGUCAUAGGCCAUGGAAACUAGGAGCACCAUUUCGCUGCCAGUGAAGAAAUGAACAAAGAAAAUCUGGGCCAGGCAGGCAUCAAAAGAAAUAGUCCUGCGCUCAACCAGAAAGUCUGUAAUCAUUUUAAGGGUA [U2G U102C], 0.94; for GUUAACGGUCAUAGGCCAUGGAAACUAGGAGCACCAUUUCGCUGCCAGUGAAGAAAUGAACAAAGAAAAUCUGGGCCAGGCAGGCAUCAAAAGAAAUAGUCUUGCGCUCAACCAAAAAGUAUGUAAUCAUUUUAAGGGUA [G115A C121A], 0.33. Under GUUAACGGUCAUAGGCCAUGGAAACUAGGAGCACCAUUUUGCUGCCAGUGAAGAAAUGAACAAAGAAAAUCUGGGCCAGGCAGGCAUCAGAAGAAAUAGUCUUGCGCUCAACCAGAAAGUCUGUAAUCAUUUUAAGGGUA [C40U A90G] stands 1.72; under GUUAACGGUCAUAGGCCAUGGAAACUAGGAGCACCAUUUCGCUGCCAGUGAAGAAAUGAACAAAGAAAAUCUGGGCCGGGCAGGCAUCAAAAGAAAUAGUCUUGCGCUCAACCAGACAGUCUGUAAUCAUUUUAAGGGUA [A78G A117C], 0.22; under GUUAACGGUCAUAGGCCAUGGAAACUAGGAGCACCAUUUCGCUGCCAGUGAAGAAAUGAACAAAGAAAAUCUGGGCCAGGCAGGCAUCAAAAGAAAUAGUCUUGCGCGCAACCAGAAAGUCUGUAAUCAUUUUAAGGGCA [U108G U139C], 0.

As for GUUAACGGUCAUAGGCCAUGGAAACUAGGAGCACCAUUUCGCUGCCAGUGAAGAAAUGAACAAAGAAAAUCUGGGCCAGGCAGGCAUCCAAAGAAAUAGUCUUGCGCUCAACCAGAAAGUCCGUAAUCAUUUUAAGGGUA [A89C U122C], the self-cleavage turned out to be 1.75.

Regarding GUUAACAGUCAUAGGCCAUGGAAACAAGGAGCACCAUUUCGCUGCCAGUGAAGAAAUGAACAAAGAAAAUCUGGGCCAGGCAGGCAUCAAAAGAAAUAGUCUUGCGCUCAACCAGAAAGUCUGUAAUCAUUUUAAGGGUA [G7A U26A], the self-cleavage came to 0.93. Under GUUAACGGUCAUAGGCCAUGGAAACUAGGAGCACCAUUUCGCUGCCAGUGGAGAAAUGAACAAAGAAAAUCAGGGCCAGGCAGGCAUCAAAAGAAAUAGUCUUGCGCUCAACCAGAAAGUCUGUAAUCAUUUUAAGGGUA [A51G U72A] stands 0.13. As for GUUAAUGGUCAUAGGCCAUGGAAACUAGGAGCACCAUUUCGCUGCCAGUGAAGAAAUGAACAAAGAAAAUCUGGGCCAGGCAGGCAUCAAAAGAAAUAGUCUUGCGCUCAACCAGAAAGUCCGUAAUCAUUUUAAGGGUA [C6U U122C], the self-cleavage is 0.82. For GUUAACGGUCACAGGCCGUGGAAACUAGGAGCACCAUUUCGCUGCCAGUGAAGAAAUGAACAAAGAAAAUCUGGGCCAGGCAGGCAUCAAAAGAAAUAGUCUUGCGCUCAACCAGAAAGUCUGUAAUCAUUUUAAGGGUA [U12C A18G] the value was 0.87; for GUUAACGGUCAUAGGCCAUGGAAACUAGGAGCACCAUUUCGCUGCCAGUGAAGAAAUGAACAAAGAAAAUCUGGGCCAGGCAGGCAUCAAAAGAAAUAGUCUUGCGCUCAACCAGAAAGUCUGUAAUCAUGUUAAGGGUA [U131G], 0.76; for GUUAACGGUCAUAGGCCAUGGAAACUGGGAGCACCAUUUCGCUGCCAGUGAAGAAAUGAACAAAGAAAAUCUGGGCCAGGCAGGCAUCAAGAGAAAUAGUCUUGCGCUCAACCAGAAAGUCUGUAAUCAUUUUAAGGGUA [A27G A91G], 1.22. For GUUAACGGUCAUAGGCCAUGGAAACUAGGAGCACCAUUUCGCUGCCAGUGAAGAAAUGAACAAAGAAAAUCUGGGCCAGGCAGGCAUCUAAAGAAAUAGUCUUGCGCUGAACCAGAAAGUCUGUAAUCAUUUUAAGGGUA [A89U C109G] the value was 0.01; for GUUAACGGUCAUAGGCCACGGAAACUAGGAGCACCAUUUCGCUGCCAGUGAAGAAAUGAACAAAGAAAAUCUGGGCCAGGCAGGCAUCAAAAGAAAUAGUCUUGUGCUCAACCAGAAAGUCUGUAAUCAUUUUAAGGGUA [U19C C105U], 0.15; for GUUAACGGUCAUAGGCCAUGGAAACUAGGAGCACCAUUUCGCUGCCAGUGAAGAAAUGAACAAAGAAAAUCUGGGCCAGGCAGGCAUCAGAAGAAAUAGUCUUGCGCUCAACCAGAAAGUCAGUAAUCAUUUUAAGGGUA [A90G U122A], 0.84. On to GUUAACGGUCUUAGGCCAUGGAAACUAGGAGCACCAUUUCACUGCCAGUGAAGAAAUGAACAAAGAAAAUCUGGGCCAGGCAGGCAUCAAAAGAAAUAGUCUUGCGCUCAACCAGAAAGUCUGUAAUCAUUUUAAGGGUA [A11U G41A], for which the self-cleavage was 0.96.

For GUUAACGGUCAUAGGCCAUGGAAACUAGGAGCACCAUUUCGCUGCCAGUGAAGAAAUGAACAAAGAAAAUCUGGGCCAGGCAGGAAUCAAAAGAAAUAGUCUUGCGCUCAACCAGAAAGUCUGUAAUCAUUUUAAGGGUG [C85A A140G], the self-cleavage came out at 1.84. Take GUUAACGGUCAUAGGCCAUGGAAACUAGGAGCACCAUUUCGCUGCCAGUGAAGAAAUGAGCAAAGAAAGUCUGGGCCAGGCAGGCAUCAAAAGAAAUAGUCUUGCGCUCAACCAGAAAGUCUGUAAUCAUUUUAAGGGUA [A60G A69G]: the self-cleavage worked out at 0.19. In the case of GUUAACGGCCAUAGGCCAUGGAAACUAGGAGCACCAUUUCGCUGCCAGUGAAGAAAUGAACAGAGAAAAUCUGGGCCAGGCAGGCAUCAAAAGAAAUAGUCUUGCGCUCAACCAGAAAGUCUGUAAUCAUUUUAAGGGUA [U9C A63G], the self-cleavage came to 1.64. For GGUAACGGUCGUAGGCCAUGGAAACUAGGAGCACCAUUUCGCUGCCAGUGAAGAAAUGAACAAAGAAAAUCUGGGCCAGGCAGGCAUCAAAAGAAAUAGUCUUGCGCUCAACCAGAAAGUCUGUAAUCAUUUUAAGGGUA [U2G A11G] the value was 1.05; for GUUGACGGUCAUAGGCCAUGGAAACUAGGAGCACCAUUUCGCUGCCAGUGAGGAAAUGAACAAAGAAAAUCUGGGCCAGGCAGGCAUCAAAAGAAAUAGUCUUGCGCUCAACCAGAAAGUCUGUAAUCAUUUUAAGGGUA [A4G A52G], 1.08; for GUUAACGGUCAUAGGCCAUGGAAACUAGGAGCACCAUUUCGCUGCCAGUGAGGAAAUGAACAAAGAAAAUCUGGACCAGGCAGGCAUCAAAAGAAAUAGUCUUGCGCUCAACCAGAAAGUCUGUAAUCAUUUUAAGGGUA [A52G G75A], 0.23. Under GUUAACGGUCAUAGGCCACGGAAACUAGGAGCACCAUUUCGCCGCCAGUGAAGAAAUGAACAAAGAAAAUCUGGGCCAGGCAGGCAUCAAAAGAAAUAGUCUUGCGCUCAACCAGAAAGUCUGUAAUCAUUUUAAGGGUA [U19C U43C] stands 0.54; under GUUAACGGUCAUAGGCCAUGGAAACUAGGAGCACCAUUUCGCUGCCAGUGAAGAAAUGAACAAAGAAAAUCUGGGCCAGGCAGGCAUUAAAAGAAAUAGUCUUGCGCUCAGCCAGAAAGUCUGUAAUCAUUUUAAGGGUA [C88U A111G], 0.04; under GUUAACGGUCAUAGGCCAUGGAAACUAGGAGCACCAUUUCGCUGCCAGUGAAGAAAUGAACAAAGAAAAUCUGGGCCGGGCAGGCAUCAAAAGAAAUAGUCUUGCGCUCAACCAGAAAGUCUGUAAUCAUUUUAAGGGUA [A78G], 0.22. For the variant GUUAACGGUCAUAGGCCGUGGAAACUAGGAGCACCAUUUCGCUGCCAGUGAAGAAAUGAACAAAGAAAAUCUGGGCCAGGCAGGCAUCAAAGGAAAUAGUCUUGCGCUCAACCAGAAAGUCUGUAAUCAUUUUAAGGGUA [A18G A92G], the self-cleavage came to 1.3. Consider GUUAACGGUCAUAGGCCAUGGAAACUAGGAGCACCAUUUCGCUGCCAGUGAAGAAAUGAACAAAGAAAAUCAGGGCCAGGCCGGCAUCAAAAGAAAUAGUCUUGCGCUCAACCAGAAAGUCUGUAAUCAUUUUAAGGGUA [U72A A82C], for which the self-cleavage was 0.35. For the variant GUUAACGGUCAUAGGCCAUGGAUACUAGGAGCGCCAUUUCGCUGCCAGUGAAGAAAUGAACAAAGAAAAUCUGGGCCAGGCAGGCAUCAAAAGAAAUAGUCUUGCGCUCAACCAGAAAGUCUGUAAUCAUUUUAAGGGUA [A23U A33G], the self-cleavage amounted to 1.06.

As for GUUAACGGUCAUAGGCCAUGGAAUCUAGGAGCACCAUUUCGCUGCCAGUGAAGAAAUGAACAAAGAAAAUCUGGGCCAGGCAGGCAUCAAAAGAAAUAGUCUUGCGCUCAACCUGAAAGUCUGUAAUCAUUUUAAGGGUA [A24U A114U], the self-cleavage is 0.22.

On to GUUAACGGUCAUAGGCCAUGGAAACUAGAAGCACCAUUUAGCUGCCAGUGAAGAAAUGAACAAAGAAAAUCUGGGCCAGGCAGGCAUCAAAAGAAAUAGUCUUGCGCUCAACCAGAAAGUCUGUAAUCAUUUUAAGGGUA [G29A C40A], for which the self-cleavage came out at 1.82. Under GUUAACGGUCAUAGGCCAUGGAAACUAGGAGCACCAUUUCGCUGCCAGUGAAGAAAUGAACAAAGAAAAUCUGGGCCAGGCAGGCAUCAAAAGAAAUAGUCUUGCGCUCAACCAGACAGUCUGUAAUCAUUUUAGGGGUA [A117C A135G] stands 0.2; under GUUAACGGUCAUAGGCCAUGGAAACUAGGAGCACCAUUUCGCUGCCAGUGAAGGAAUGAACAAAGAAAAUCUGGGCCAGGCAGGCAUCAAAAGAAAUAGUCUCGCGCUCAACCAGAAAGUCUGUAAUCAUUUUAAGGGUA [A54G U103C], 0.91.

In the case of GUUAACGGUCAUAGGCCAUGGAAACUAGGAGCACCAUUUCGCUGCCAGUGAAGAAAUGAACAAAGAAAAUCUGGGCCAGGCAGGCAUCAAAAGAAAUAGUCUUGCGCUCAACCUGAAAGUCUGUAAUCAUUUUAGGGGUA [A114U A135G], the self-cleavage was determined as 0.05.

GUUAACGGUCAUAGGCCAUGGAAACUAGGAGCACCAUUUCGCUGCCAGUGAAGAAAUGAACAAAGAAAAUCUGGGCCAGGCAGGCGUCAAUAGAAAUAGUCUUGCGCUCAACCAGAAAGUCUGUAAUCAUUUUAAGGGUA [A86G A91U]: the self-cleavage was 0.73. As to GUUAACGGUCAUAGGCCAUGGAAACUAGGAUCACCAUUUCGCUGCCAGUGAAGAAAUGAACAAAGAAAAUCUGGGCCAGGCAGGCAUCAAAAGAAAUAGUCUUGCGCUCAACCAGAAAGUCUGUAAUCAUUUCAAGGGUA [G31U U133C], the self-cleavage is 2.47. Under GUUAACGGUCAUAGGCCAUGGAAACUAGGAGCACCAUUUCGCUGCCAGUGAAGAAACGAACAAAGAAAAUCUGGGCCAGGCAGGCAUCAAAAGAAAUAGUCUGGCGCUCAACCAGAAAGUCUGUAAUCAUUUUAAGGGUA [U57C U103G] stands 0.02.
